According to patent publication US20200407722, “DNA APTAMER […] BINDING TO TB7.7, AND USE […]” (MD APTUS INC., published 2020):

T1: TB7.7 (Mycobacterium tuberculosis H37Rv, UniProt P9WJ11 P9WJ11:1-81)
T1 sequence: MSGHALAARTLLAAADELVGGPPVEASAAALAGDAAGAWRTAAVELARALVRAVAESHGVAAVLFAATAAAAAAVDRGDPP

B1: TG4 (ssDNA)
DNA: CACCTAATACGACTCACTATAGCGGATCCGAAAGTTGTTAGTAGACTTAGGGGAGGGTTAAAGTGGGGTGGCTGGCTCGAACAAGCTTGC
B2: TG5 (ssDNA)
DNA: CACCTAATACGACTCACTATAGCGGATCAGAATTTCTGTAATTAAGCGATAAATTGCTTAATAGGCACTCTCTGGCTCGAACAAGCTTGC
B3: TG6 (ssDNA)
DNA: CACCTAATACGACTCACTATAGCGGATCCGACACGAAGGATACTCAGTAGTACCCAGGTTGGTAGGGTAGCCTGGCTCGAACAAGCTTGC
B4: TG4 immobilized on gold electrode (ssDNA)
DNA: B1 DNA

Tests used:
TB7.7 = target: T1, TB7.7; assay: fluorescence of Cy3-aptamer bound to TB7.7 magnetic beads; 20 mM Tris, 50 mM NaCl, 5 mM KCl, 5 mM MgCl2, pH 8.0; conditions: tags: His6-tag, pET32a vector, expressed in E. coli BL21(DE3); label: Cy3
Protocol: 16 μg of TB7.7 was mixed with 10 μL of magnetic beads, and then incubated in 100 μL of a binding buffer (20 mM Tris, 50 mM NaCl, 5 mM KCl, 5 mM MgCl₂, pH 8.0) for 1 hour. To separate unbound TB7.7, washing was performed twice with a binding buffer. Subsequently, the resulting mixture was incubated together with various concentrations of a Cy3-labeled aptamer for an hour, and an unbound aptamer was removed by washing. The amount of Cy3-labeled ssDNA aptamer bound to the magnetic beads with TB7.7 immobilized thereon was measured by fluorescence measurement (1420 Victor Multilabel counter, PerkinElmer, USA) by separating only Cy3-labeled ssDNA bound to TB7.7.

CFP10 = CFP10 (Mycobacterium tuberculosis, UniProt P9WNK5 P9WNK5:2-100); assay: impedance biosensor, 10 pM protein in PBS; aptamer taken as TG4
Source text: (§1) At this time, each protein was mixed at a concentration of 10 pM with PBS and used for detection.

ESAT6 = ESAT6 (Mycobacterium tuberculosis, UniProt P9WNK7 P9WNK7:2-95); assay: as above
Source text: as §1

Binder	Kd (TB7.7) [nM]	binding result (CFP10)	binding result (ESAT6)
B1	37.5	–	–
B2	106	–	–
B3	34.3	–	–
B4	–	no binding	no binding
